For the test, the target named is T1, Mcl-1, Q07820.
T1 chain: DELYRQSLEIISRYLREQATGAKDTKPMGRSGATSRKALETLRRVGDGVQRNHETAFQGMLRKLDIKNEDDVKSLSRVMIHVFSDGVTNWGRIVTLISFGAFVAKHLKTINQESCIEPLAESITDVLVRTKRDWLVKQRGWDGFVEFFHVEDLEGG
Briefly: peptide SPOT array, c-Myc-tagged receptor at 1 uM or 100 nM, anti-c-Myc-Cy3.

The molecule QPHTGKLCWFLDEAAARLLTVPFEKH [PGLS] yielded an SPOT signal as a fraction of Bim BH3's signal on the same receptor and array of 0.02.
As for LWAAQRYGRELRRMSDEFVDSFKKGL [BAD], the figure is 0.53; as for DRYEGFCVDMLKELAEILRFNYKIRL [GRIK4], 0.03.
As for TGVNGEISYSLFQASDEISKTFKVDF [PCDHB8], the figure is 0.02; as for SGEFARICRDDSHIGDAVVISCAKDG [PCNA], 0.01; as for AAPEGDWARLLEQMGALAVRGSRRER [ZBED3], 0.11.
To TRELQELARKLQELLDASENLLTENT [TXNDC11] belongs 0.01; to CANHPSAVNVLTEHSEELGEFMETKG [ARHGEF7], 0.01; to GVMTQEVGQLLQDMGDDVYQQYRSLT [HUWE1], 0.45.
The molecule SKSKIHAARSLSEIAIDLTETGTLKT [FRMD4A] registered an SPOT signal as a fraction of Bim BH3's signal on the same receptor and array of 0.02.
Regarding DVTHSKAVEALKEAGSIVRLYVKRRK [DLG1], the SPOT signal as a fraction of Bim BH3's signal on the same receptor and array is 0.13.
Take PFNKEELSAILKFGAEELFKEPEGEE [CHD1]: the SPOT signal as a fraction of Bim BH3's signal on the same receptor and array is 0.02.
In the case of DRFEGYCIDLLRELSTILGFTYEIRL [GRIK2], the SPOT signal as a fraction of Bim BH3's signal on the same receptor and array turned out to be 0.02.
SSAPAAAAGLLREAGSGGRERADWRR [MAP3K1] registered an SPOT signal as a fraction of Bim BH3's signal on the same receptor and array of 0.07.
As for RGPEAPGGRALRDAAENLFQELQEHF [PRR20C], the figure is 0.02; as for FSDCLMVVQFLRNFGKVLGFDVNIDV [BAZ2B], 0.02; as for DKATENCVCILHNLSYQLEAELPEKY [PKP2], 0.01.
As for LELVSGSIGVLKNMSQRIGGELEEQA [STX6], the figure is 0.02.
As for GSKSDPLCVLLQDVGGGSWAELGRTE [CPNE1], the SPOT signal as a fraction of Bim BH3's signal on the same receptor and array was determined as 0.02.
As to KYFLQNFSCFLEETADEWAEKMPKGP [EFCAB6], the SPOT signal as a fraction of Bim BH3's signal on the same receptor and array amounted to 0.03.
As for HQAEVQIARKLQCIADQFHRLHVQQH [BMF], the SPOT signal as a fraction of Bim BH3's signal on the same receptor and array was found to be 0.48.
In turn, AIDAIFLTTTLQNISEDVLAVMDNKN [CKAP5] displayed an SPOT signal as a fraction of Bim BH3's signal on the same receptor and array of 0.02.
The molecule QATHDQAVQALKRAGKEVLLEVKFIR [SNTB2] yielded an SPOT signal as a fraction of Bim BH3's signal on the same receptor and array of 0.02.
The molecule FDRAVVLSHYIHNLSSEMFSEFDKRY [PRL] displayed an SPOT signal as a fraction of Bim BH3's signal on the same receptor and array of 0.02.
As for PASTDAVSALLEQTAVELEKRQEGRS [WWC1], the figure is 0.01.
To SSEEITVAGNLEKSAERSTQGLKFHL [RSC1A1] belongs 0.01.
In the case of GKDHPAVAATLNNLAVLYGKRGKYKE [KLC1], the SPOT signal as a fraction of Bim BH3's signal on the same receptor and array worked out at 0.22.
To TWEIECTSEMLKKLSSKVMTKVIKKK [TRANK1] belongs 0.11; to CRREPGLAETLRDAAHLGLLECQFQF [WNT9B], 0.02.
To AKTSQTVATFLDELAQKLKPLGEQER [THOP1] belongs 0.02; to KRAAEMMASLLKDLAEIGIAVGNNDV [KIF5B], 0.02; to AELEVECATQLRRFGDKLNFRQKLLN [PMAIP1], 0.85.
As for SVLRKALHDSLHDCSHWFYTRWKDWE [ZRANB1], the SPOT signal as a fraction of Bim BH3's signal on the same receptor and array came out at 0.04.
As for RTVESEAASYLDQISRYYITRAKLVS [PSME3], the figure is 0.15; as for AKYLSGIAHFLEKLAFSSTARFDSKD [PMPCA], 0.06.
Turning to LDDSVEVIKALKNGGAHLDFRAKDGM [SHANK2], the SPOT signal as a fraction of Bim BH3's signal on the same receptor and array worked out at 0.02.
To AEIELEYSRSLEKLAERFSSKIRSSR [SRGAP3] belongs 0.07; to QVQNIKLAGSLQHVAEKLCRELYNKA [CLEC1A], 0.11.
To IVIDCSAIQFLDTAGIHTLKEVRRDY [SLC26A2] belongs 0.02; to KCCYGYCIDLLERLAEDTPFDFELYL [GRIN3B], 0.02.
As for TESGSFVANLLKDLGLEIGELAVRGA [PCDHB2], the figure is 0.02; as for IFNGSNWIMLIYKGGDEYDNHCGKEQ [M6PR], 0.02.
With VPARAPAVDLLEEAADLLVVHLDFRA [PEX26], the SPOT signal as a fraction of Bim BH3's signal on the same receptor and array came to 0.02.
As for ANLEISYAKGLQKLASKLSKALQNTR [NOSTRIN], the figure is 0.22.
As for HPEHFVCAFCLTQLSKGIFREQNDKT [LPXN], the figure is 0.03.
As for DFITALPARGLDHIAENILSYLDAKS [BTRC], the SPOT signal as a fraction of Bim BH3's signal on the same receptor and array worked out at 0.02.
As for EAGNMAAVGRLQAVSRRLFAELENER [KIAA1751], the figure is 0.02; as for LFKAADSSRSIYEVAMQLLQILEPKM [FRYL], 0.02; as for CVSDQELGLLIKEVADALGGGADPET [KCNK4], 0.01.
Consider SPVPPVVHLTLRQAGDDFSRRYRRDF [BCL2], for which the SPOT signal as a fraction of Bim BH3's signal on the same receptor and array worked out at 0.26.

The values above are taken from paper PMC4072508, “Genome-Wide Prediction and Validation of Peptides That Bind Human Prosurvival Bcl-2 Proteins” (PLoS Computational Biology, 2014).
